Columns and labels:
trypsin = test: Phage TRF binding assay on immobilised biotinylated trypsin (monoclonal phage ELISA); details: EETI-II in 5-3 frame, value in brackets after clone name
Procedure: Phage display technology facilitates isolation of binders to any given target from large combinatorial repertoires based on proteins and peptides that can be presented on the surface of filamentous phage^105. In order to isolate functional knottin-antibody fusions from the KnotBody libraries multiple rounds of phage display selections on trypsin (cognate antigen for the EETI-II donor) were carried out. Phage particles were prepared by rescuing KnotBody libraries using trypsin cleavable helper phage ^102,106Two rounds of phage display selections were performed on 10 µg/ml biotinylated trypsin immobilised on Streptavidin (for Round-1) or Neutravidin (for round-2) coated Maxisorp™ immunotubes (Thermo Scientific, Cat No. 444202). In both rounds of selection, phage libraries were pre-incubated with streptavidin coated paramagnetic beads (Thermo Fisher Scientific, Cat. No. 11205D). These beads were removed prior to the addition the phage to the antigen tubes to limit the streptavidin binders entering the selection. Polyclonal phage preparations from round-2 selection outputs were analysed for trypsin binding using a time resolved fluorescence (TRF) binding assay. In this assay, polyclonal phage binding to biotinylated trypsin immobilised on neutravidin (Thermo Fisher Scientific, Cat. No 31000) coated Maxisorp™ plates (Thermo Scientific, Cat. No. 437111) was detected using a mouse anti-M13 antibody (GE Healthcare, Cat. No. 27-9420-01) followed by europium conjugated anti-mouse antibody (Perkin Elmer, Cat. No. AD0124).
In order to identify monoclonal KnotBodies with desired binding characteristics, 94 individual clones derived from 2 rounds of selection using EETI-II CDR1 or CDR2 libraries were picked into 96 well culture plates and phage were prepared from each clone. Methods for screening by monoclonal phage ELISA are known in the art^107. […] Clones with >3x binding signal above background were picked as positive clones and sequenced to identify unique clones. 14 and 42 unique binders were identified from EETI-II CDR1 and EETI-II CDR2 libraries respectively (Table 1). 18 binders from the EETI-II CDR2 library and 3 binders from the EETI-II-CDR1 library were chosen for further characterisation based on their VL and linker sequence diversity. These binders were assigned new clone identification numbers (Table 2).
The trypsin binding capability of EETI-II is attributed to proline (Pro3) and arginine (Arg4) residues present in its loop1 (GCPRILMRC; SEQ ID NO: 68). […] Monoclonal phage was prepared from the 21 selected clones and their mutant equivalents. […] Replacement of the trypsin-binding residues of EETI-II abolished the ability of all KnotBody clones to bind to trypsin (Table 3). In order to confirm that the loss of trypsin binding was not due to reduced expression or display of pIII fusion phage was prepared from 11 (randomly chosen) KnotBodies and their GlyAla variants were analysed on a western blot using an antibody which recognises the product of gene 3 (pIII) using an anti-pIII antibody (MoBiTec GmbH) (FIG. 6).
Bovine antibodies have been described with natural ultra-long VH CDR3s containing a solvent exposed double stranded antiparallel sheet approximately 20 A° in length (referred to as the stalk) presenting a folded domain stabilised by 3 disulfide bonds (referred to as the Knob)^10. Zhang and colleagues have shown that the Knob domains of these cow ultra-long VH CDR3 antibodies (ULVC-Ab) can be replaced with other folded proteins such as erythropoietin^13. In this example, we assess the ability of a cow ULVC-Ab to present functional knottin fusions on phage in comparison with a KnotBody. In order to create a Knottin-cow UCLA fusion, the sequence between the first and the last cysteines of the knob region of the Cow ULVC-Ab BLV1H12 was replaced with the sequence of the trypsin binding knottin; EETI-II (EETI-II cow ULVC-Ab). A gene fragment encoding this construct was synthesised (Integrated DNA technologies, Table 21). […]

huKv1.3 = target: T1, huKv1.3 (Homo sapiens, UniProt P22001); test: QPatch automated whole-cell patch-clamp, CHO cells stably expressing huKv1.3 (Example 8); assay type: cell-based
T1 construct: host or cells: CHO
Procedure: Knottin Kv 1.3 and ASIC1a blockers expressed in the KnotBody format (see examples 6 and 7) were tested for their ability to inhibit the function of the ion channel targets. The effect of these KnotBodies on cells expressing the human Kv 1.3 (huKv1.3) or human ASIC1a channels was assessed using QPatch automated whole-cell patch-clamp electrophysiology (Sophion).
For the testing of Kv1.3, CHO cells stably expressing huKv1.3 (Charles River Lab) were analysed using the QPatch electrophysiology assay in the presence or absence of the KnotBody fusions or the antibody isotypes (negative) controls. Internal and external physiological solutions were freshly prepared prior to the assay. The extracellular solution contained 145 mM NaCl, 4 mM KCl, 2 mM CaCl2, 1 mM MgCl2, 10 mM HEPES and 10 mM glucose; the pH was adjusted to 7.4 with NaOH; the osmolarity was ~ 305 mOsm/L. The intracellular solution contained: KF (120 mM), KCl (20 mM), HEPES (10 mM) and EGTA (10 mM); the pH was adjusted to 7.2 with KOH; osmolarity was ~ 320 mOsm/L.
A series of depolarising voltage (channel activating) pulses were used to monitor the channel currents upon adding control (extracellular solution) to define a control baseline of current activity. To these measured control currents ascending concentrations of KnotBodies or parental antibody isotypes (control molecules) were applied to the external bathing solution (2.2 µM - 0.5 nM, diluted in the extracellular solution). KnotBodies KB_A12 and KB_A07 (EETI-II fusions) were used as isotype controls for the testing. From a holding voltage of -80 mV a depolarising, activating voltage pulses of +30 or +80 mV were applied for 300 ms, every 5 or 10 seconds. The elicited, maximum outward current values measured during the activating step for each solution exchange period were averaged (n = 3 - 8 for each concentration applied) and plotted as concentration-response curves. KB_A07_ShK, KB_A12_ShK and KB_A07_Kaliotoxin (KTX) fusion proteins all inhibited the huKv1.3 currents in a concentration dependent manner with IC50S of approximately 20 nM, 40 nM and 900 nM respectively.

[1] = Kv1.3 channels, IgG KnotBody, Table 11A
[2] = huKv1.3 currents, text of Example 8, approximately

T1 sequence (P22001 whole entry): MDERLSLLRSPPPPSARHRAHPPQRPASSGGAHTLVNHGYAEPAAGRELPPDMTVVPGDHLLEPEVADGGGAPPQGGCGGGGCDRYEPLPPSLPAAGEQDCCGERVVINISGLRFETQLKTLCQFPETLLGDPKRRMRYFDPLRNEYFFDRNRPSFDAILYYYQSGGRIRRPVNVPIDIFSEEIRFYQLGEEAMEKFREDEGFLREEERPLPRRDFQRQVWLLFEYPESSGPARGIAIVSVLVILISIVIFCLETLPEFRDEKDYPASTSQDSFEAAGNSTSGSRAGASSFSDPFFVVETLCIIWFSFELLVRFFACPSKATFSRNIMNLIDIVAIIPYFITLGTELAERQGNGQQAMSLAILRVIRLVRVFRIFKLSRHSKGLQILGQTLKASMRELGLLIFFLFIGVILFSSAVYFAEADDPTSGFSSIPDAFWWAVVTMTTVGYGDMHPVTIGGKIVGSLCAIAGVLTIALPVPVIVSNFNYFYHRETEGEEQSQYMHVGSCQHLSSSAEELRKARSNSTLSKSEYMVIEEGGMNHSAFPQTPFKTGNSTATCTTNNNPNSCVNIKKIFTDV

| Molecule | ELISA signal from monoclonal phage ELISA (trypsin) | IC50 (huKv1.3; [1]) [nM] | IC50 (huKv1.3; [2]) [nM] |
| --- | --- | --- | --- |
| F01: KnotBody with alternative 5-3 framing of EETI-II, VL CDR2 (protein, F01 (101798), KnotBody with alternative 5-3 framing of EETI-II, VL CDR2) DIQMTQSPSSLSASVGDRVTITCRASQSISSYLNWYQQKPGKAPKLLIDAAGECGPNGFCGSGSDGGVCPRINMRCKQDSDCLAGCGRDSGVPSRFSGSGSGTDFTLTISSLQPEDFATYYCQQSYSTPWTFGQGTKVEIKRT | F01 |  |  |
| KB_A07_ShK: ShK toxin in VL CDR2 of KB_A07, IgG1 (antibody, V domains shown) VH: EVQLVESGGGLVRPGGSLRLSCAASGFTFSSYAMSWVRQAPGKGLEWVSAISGSGGSTYYADSVKGRFTISRDNTKNSLYLQMTSLRADDTAFYYCVKDFGPGYGTGWFDYWGPGTLVTVSS VL: DIQMTQSPSSLSASVGDRVTITCRASQSISSYLNWYQQKPGKAPKLLIYAAGVRSCIDTIPKSRCTAFQCKHSMKYRLSFCRKTCGTCSRSGVPSRFSGSGSGTDFTLTISSLQPEDFATYYCQQGASPPYTFGQGTKVEIKR |  | 40 | ~20 |
| KB_A07_KTX: kaliotoxin in VL CDR2 of KB_A07, IgG1 (antibody, V domains shown) VH: EVQLVESGGGLVRPGGSLRLSCAASGFTFSSYAMSWVRQAPGKGLEWVSAISGSGGSTYYADSVKGRFTISRDNTKNSLYLQMTSLRADDTAFYYCVKDFGPGYGTGWFDYWGPGTLVTVSS VL: DIQMTQSPSSLSASVGDRVTITCRASQSISSYLNWYQQKPGKAPKLLIYAAGVGVEINVKCSGSPQCLKPCKDAGMRFGKCMNRKCHCTPKSRSGVPSRFSGSGSGTDFTLTISSLQPEDFATYYCQQGASPPYTFGQGTKVEIKR |  | 900 | ~900 |

From patent US20230331827A1, “POTASSIUM CHANNEL INHIBITORS” (priority 2017, published 2023)
